Laboratory results: publication PMC2998059

Biological target: GST-PC1 C-terminus deletion mutant SH3
Assay: pull-down

Question: Which binding relative to PC1-FLCT does the source give for “myc-tagged QLα12 (constitutively active, GTPase-deficient Gα12) (from UniProt P27600 48-379) (natural protein)” here?
Answer: 50%
